One block for each molecule: values may come before it.
Legend:
3xStrep-GFP-tagged STIL = experiment: microtubule recruitment assay in cells (MAP7-mCherry-CEP85 / GFP-STIL co-transfection, fluorescence microscopy); conditions: U-2 OS STIL CRISPR KO cells, co-transfected for 24 h; parent: 98; read off a plot
[1] = target: T1, H. sapiens CEP85 570-656 (CEP85 cc4) (human, UniProt Q6P2H3 570-656); experiment: ITC; 10 °C
T1 chain: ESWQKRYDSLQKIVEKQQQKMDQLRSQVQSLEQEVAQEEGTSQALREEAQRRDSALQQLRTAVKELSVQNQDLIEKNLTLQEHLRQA

[2] = target: T2, H. sapiens CEP85 570-656 (CEP85 cc4) (Homo sapiens (Human), UniProt Q6P2H3); experiment: ITC (25 °C, plus AUC); text gives only a range of ~14-65 µM, nM is its midpoint; affinity varies ~14-65 µM with experimental conditions; CEP85 cc4 must be dimeric to bind (dimer favoured at reduced temperature)
T2 chain: T1 chain

[3] = target: the molecule itself; experiment: crystal structure; H. sapiens CEP85 570-656 alone; 18 °C, 100 mM Na-HEPES pH 7.7, 200 mM Na-Citrate, 36% MPD; 1.7 Å
chicken STIL NTD = target: T3, chicken STIL NTD (chicken (Gallus gallus), UniProt A0A8V1A6L7 1-365); experiment: ITC + AUC; recombinant chicken STIL NTD and human CEP85 cc4; affinity given as a range depending on the experimental conditions; conditions: both partners purified
T3 construct: STIL, chicken (Gallus gallus), N-terminal domain (NTD), 66% identical to human STIL NTD; construct details in the Supplementary Information; also called Gallus gallus STIL NTD; STIL NTD WT
T3 sequence (looked up): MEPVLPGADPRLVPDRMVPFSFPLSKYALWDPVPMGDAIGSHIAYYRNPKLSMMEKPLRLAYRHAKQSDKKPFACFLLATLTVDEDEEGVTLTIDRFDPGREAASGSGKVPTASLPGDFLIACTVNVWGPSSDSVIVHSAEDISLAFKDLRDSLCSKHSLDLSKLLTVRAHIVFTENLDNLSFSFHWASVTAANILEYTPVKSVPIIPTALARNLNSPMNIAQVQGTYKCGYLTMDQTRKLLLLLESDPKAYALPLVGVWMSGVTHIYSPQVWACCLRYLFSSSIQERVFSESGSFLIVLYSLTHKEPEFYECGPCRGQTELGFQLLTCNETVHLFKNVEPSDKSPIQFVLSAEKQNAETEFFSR

Molecule: 3xFLAG-MAP7(17-282)-mCherry-CEP85 wild type mutant E644A [human] / 3xStrep-GFP-tagged STIL [not stated] chain 2 E644A
- screen value (3xStrep-GFP-tagged STIL): 47 % of cells

B1: chicken STIL NTD (domain or fragment)
chain: T3 sequence (looked up)
- Kd [1]: 59 µM
- Kd [2]: ~30 µM

B2: H. sapiens CEP85 570-656 (CEP85 cc4) (domain or fragment, human, UniProt Q6P2H3 570-656, looked up)
chain: T1 chain
notes: CEP85, human, fourth coiled-coil domain (cc4), residues 570-656; Limits are those printed for the crystallised construct; Parallel coiled-coil dimer in the crystals; monomer-dimer equilibrium in solution at room temperature; also called human CEP85 cc4; CEP85 coiled-coil
- stoichiometry N [3]: 2
- Kd (chicken STIL NTD): 14 to 65 µM

Next, values leading:

- screen value (3xStrep-GFP-tagged STIL): 22 % of cells
Molecule: 3xFLAG-MAP7(17-282)-mCherry-CEP85 wild type mutant Q640A [human] / 3xStrep-GFP-tagged STIL [not stated] chain 2 Q640A

- screen value (3xStrep-GFP-tagged STIL): 11 % of cells
Molecule: 3xFLAG-MAP7(17-282)-mCherry-CEP85 wild type mutant Q640A; E644A [human] / 3xStrep-GFP-tagged STIL [not stated] chain 2 Q640A, chain 2 E644A

— paper PMC5928214, “Direct binding of CEP85 to STIL ensures robust PLK4 activation and efficient centriole assembly” (Nature Communications, 2018)
